Values quoted from earlier work as cited in PMC7421905.

Molecular target: Laminin 411 (Homo sapiens) (UniProt Q16363)
UniProt Q16363, sequence (Q16363 25-1823, chain 1 of 3): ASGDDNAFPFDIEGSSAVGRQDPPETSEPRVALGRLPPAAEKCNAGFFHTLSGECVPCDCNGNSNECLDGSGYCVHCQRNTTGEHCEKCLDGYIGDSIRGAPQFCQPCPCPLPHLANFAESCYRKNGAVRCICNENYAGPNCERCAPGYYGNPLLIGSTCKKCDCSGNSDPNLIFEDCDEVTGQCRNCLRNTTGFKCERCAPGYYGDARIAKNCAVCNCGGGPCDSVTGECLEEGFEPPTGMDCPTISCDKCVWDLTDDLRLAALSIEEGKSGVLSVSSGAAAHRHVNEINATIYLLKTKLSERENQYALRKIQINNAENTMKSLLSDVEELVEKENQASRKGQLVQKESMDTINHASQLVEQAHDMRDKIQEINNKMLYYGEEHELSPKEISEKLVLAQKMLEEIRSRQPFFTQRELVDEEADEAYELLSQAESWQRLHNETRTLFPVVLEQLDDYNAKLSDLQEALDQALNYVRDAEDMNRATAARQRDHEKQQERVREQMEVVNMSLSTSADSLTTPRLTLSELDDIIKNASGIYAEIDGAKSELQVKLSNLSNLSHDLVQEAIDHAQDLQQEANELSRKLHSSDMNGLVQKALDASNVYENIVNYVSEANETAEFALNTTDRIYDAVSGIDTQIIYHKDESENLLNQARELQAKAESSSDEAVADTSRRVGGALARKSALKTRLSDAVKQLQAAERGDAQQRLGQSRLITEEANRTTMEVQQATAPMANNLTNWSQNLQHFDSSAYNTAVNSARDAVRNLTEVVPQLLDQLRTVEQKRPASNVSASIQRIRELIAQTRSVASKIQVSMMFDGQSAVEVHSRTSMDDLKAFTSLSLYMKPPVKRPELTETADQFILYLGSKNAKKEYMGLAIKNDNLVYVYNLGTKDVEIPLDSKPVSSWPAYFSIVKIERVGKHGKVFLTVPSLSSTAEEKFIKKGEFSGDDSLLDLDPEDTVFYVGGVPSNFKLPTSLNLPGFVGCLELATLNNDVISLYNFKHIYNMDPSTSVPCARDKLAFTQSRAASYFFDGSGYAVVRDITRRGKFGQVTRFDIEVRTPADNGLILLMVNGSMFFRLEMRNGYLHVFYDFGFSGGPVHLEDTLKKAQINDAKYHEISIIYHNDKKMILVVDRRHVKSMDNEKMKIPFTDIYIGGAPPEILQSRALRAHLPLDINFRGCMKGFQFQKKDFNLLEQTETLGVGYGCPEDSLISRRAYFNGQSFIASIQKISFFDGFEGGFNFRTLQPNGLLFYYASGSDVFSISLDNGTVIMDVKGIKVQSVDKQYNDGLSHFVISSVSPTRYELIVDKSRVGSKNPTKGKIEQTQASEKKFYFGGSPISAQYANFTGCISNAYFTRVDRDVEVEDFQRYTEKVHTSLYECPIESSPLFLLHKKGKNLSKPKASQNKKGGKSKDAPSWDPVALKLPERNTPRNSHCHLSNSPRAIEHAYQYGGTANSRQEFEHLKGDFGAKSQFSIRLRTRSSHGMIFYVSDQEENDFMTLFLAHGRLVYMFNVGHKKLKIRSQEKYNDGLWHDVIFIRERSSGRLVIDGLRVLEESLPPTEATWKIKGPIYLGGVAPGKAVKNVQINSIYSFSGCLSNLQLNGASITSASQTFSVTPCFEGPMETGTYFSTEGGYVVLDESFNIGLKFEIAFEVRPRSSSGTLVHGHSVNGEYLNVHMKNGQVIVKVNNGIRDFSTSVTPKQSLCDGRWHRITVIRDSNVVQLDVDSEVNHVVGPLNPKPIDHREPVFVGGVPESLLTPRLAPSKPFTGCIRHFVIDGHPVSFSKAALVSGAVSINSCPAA
UniProt Q16363, sequence (P07942 22-1786, chain 2 of 3, further chain): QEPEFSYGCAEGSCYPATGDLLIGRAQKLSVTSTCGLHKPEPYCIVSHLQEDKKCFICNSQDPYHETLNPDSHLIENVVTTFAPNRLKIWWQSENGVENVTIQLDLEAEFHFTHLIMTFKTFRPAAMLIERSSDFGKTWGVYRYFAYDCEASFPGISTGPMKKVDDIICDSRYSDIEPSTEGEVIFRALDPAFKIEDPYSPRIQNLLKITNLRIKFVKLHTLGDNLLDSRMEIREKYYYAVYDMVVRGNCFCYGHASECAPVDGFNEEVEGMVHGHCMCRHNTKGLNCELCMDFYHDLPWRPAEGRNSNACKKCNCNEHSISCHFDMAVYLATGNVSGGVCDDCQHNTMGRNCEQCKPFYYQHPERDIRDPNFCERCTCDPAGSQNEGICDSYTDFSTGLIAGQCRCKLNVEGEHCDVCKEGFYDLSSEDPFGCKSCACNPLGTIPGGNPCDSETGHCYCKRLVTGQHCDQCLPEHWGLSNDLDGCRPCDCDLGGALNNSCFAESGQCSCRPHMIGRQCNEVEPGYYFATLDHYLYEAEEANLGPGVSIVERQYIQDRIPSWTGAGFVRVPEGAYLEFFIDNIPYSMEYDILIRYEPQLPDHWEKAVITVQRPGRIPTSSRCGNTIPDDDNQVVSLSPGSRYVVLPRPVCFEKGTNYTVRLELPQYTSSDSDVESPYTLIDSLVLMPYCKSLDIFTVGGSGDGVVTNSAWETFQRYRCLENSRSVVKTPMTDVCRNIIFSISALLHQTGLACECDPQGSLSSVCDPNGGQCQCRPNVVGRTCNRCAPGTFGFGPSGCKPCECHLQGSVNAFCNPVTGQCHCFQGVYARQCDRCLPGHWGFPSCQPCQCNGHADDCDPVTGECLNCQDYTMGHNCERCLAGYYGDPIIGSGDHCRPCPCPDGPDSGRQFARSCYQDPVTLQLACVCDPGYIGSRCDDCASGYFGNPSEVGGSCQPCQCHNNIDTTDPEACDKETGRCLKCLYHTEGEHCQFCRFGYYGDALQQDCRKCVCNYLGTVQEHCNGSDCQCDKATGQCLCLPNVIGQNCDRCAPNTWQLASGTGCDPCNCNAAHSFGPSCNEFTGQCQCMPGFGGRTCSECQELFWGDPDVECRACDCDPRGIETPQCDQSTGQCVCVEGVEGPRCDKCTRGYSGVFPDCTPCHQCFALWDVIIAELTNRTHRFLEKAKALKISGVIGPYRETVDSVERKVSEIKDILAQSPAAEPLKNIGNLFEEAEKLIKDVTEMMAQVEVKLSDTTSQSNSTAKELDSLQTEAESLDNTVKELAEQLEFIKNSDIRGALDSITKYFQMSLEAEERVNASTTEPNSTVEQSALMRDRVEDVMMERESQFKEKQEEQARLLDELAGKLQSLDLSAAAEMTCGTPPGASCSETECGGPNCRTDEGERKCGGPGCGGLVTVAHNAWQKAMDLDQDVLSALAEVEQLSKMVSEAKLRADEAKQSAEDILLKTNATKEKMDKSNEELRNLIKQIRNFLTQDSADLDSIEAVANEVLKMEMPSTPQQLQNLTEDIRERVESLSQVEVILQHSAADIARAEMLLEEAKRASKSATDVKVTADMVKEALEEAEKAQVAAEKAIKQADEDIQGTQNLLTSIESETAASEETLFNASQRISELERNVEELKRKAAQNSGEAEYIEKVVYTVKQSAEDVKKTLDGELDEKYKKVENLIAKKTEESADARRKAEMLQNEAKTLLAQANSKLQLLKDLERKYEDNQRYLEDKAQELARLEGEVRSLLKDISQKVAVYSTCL
UniProt Q16363, sequence (P11047 34-1609, chain 3 of 3, further chain): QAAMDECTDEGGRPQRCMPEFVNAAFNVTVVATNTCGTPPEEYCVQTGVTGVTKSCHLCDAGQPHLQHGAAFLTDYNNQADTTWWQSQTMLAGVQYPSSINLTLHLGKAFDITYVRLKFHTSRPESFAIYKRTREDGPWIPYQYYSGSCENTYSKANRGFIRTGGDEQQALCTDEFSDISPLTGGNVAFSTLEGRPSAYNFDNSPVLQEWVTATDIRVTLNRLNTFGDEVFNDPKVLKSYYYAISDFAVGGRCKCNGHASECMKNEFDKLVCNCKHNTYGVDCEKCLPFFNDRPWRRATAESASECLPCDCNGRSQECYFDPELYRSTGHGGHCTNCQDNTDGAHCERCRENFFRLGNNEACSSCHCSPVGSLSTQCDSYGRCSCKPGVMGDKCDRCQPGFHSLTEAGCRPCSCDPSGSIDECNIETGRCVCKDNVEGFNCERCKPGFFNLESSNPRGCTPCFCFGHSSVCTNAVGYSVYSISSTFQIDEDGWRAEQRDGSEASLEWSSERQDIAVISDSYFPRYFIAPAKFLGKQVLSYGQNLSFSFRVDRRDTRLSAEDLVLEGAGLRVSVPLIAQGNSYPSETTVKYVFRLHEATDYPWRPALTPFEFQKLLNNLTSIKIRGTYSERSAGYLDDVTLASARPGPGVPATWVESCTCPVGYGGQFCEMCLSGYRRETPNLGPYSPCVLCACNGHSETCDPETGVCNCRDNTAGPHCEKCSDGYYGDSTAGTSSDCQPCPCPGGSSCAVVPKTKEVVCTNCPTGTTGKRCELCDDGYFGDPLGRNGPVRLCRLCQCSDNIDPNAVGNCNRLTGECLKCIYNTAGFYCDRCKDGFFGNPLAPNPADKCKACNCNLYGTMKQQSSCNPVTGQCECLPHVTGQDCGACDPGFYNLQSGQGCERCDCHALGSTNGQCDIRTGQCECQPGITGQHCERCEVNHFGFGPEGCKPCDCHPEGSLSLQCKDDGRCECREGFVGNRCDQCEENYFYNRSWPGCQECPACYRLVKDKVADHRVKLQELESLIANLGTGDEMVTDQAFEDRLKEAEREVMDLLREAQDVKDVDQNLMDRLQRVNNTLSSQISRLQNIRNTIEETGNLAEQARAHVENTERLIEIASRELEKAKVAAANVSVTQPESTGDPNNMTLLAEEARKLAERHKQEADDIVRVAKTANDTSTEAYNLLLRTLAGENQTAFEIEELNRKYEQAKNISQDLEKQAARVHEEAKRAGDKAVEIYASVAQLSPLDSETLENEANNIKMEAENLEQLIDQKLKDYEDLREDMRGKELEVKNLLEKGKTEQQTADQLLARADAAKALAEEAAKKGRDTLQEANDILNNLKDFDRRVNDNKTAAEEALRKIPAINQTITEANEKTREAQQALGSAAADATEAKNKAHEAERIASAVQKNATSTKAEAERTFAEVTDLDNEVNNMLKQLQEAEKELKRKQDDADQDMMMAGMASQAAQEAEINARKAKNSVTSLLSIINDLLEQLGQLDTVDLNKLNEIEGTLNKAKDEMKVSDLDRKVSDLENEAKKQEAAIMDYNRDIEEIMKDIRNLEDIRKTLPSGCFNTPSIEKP

- Kd: 27 nM
Substance: CD146-Fc (from UniProt P43121)
